Source: patent US20230212286A1 (INNOBATION BIO, published 2023)

T1: CD22-His tag (CD22 extracellular domain; Acrobiosystems Inc.) (UniProt P20273 20-687, limits assumed)
T1 construct: extracellular domain; Bought reagent coated at 100 ng/well; also called CD22 peptide; not shown: His tag
T1 sequence (looked up): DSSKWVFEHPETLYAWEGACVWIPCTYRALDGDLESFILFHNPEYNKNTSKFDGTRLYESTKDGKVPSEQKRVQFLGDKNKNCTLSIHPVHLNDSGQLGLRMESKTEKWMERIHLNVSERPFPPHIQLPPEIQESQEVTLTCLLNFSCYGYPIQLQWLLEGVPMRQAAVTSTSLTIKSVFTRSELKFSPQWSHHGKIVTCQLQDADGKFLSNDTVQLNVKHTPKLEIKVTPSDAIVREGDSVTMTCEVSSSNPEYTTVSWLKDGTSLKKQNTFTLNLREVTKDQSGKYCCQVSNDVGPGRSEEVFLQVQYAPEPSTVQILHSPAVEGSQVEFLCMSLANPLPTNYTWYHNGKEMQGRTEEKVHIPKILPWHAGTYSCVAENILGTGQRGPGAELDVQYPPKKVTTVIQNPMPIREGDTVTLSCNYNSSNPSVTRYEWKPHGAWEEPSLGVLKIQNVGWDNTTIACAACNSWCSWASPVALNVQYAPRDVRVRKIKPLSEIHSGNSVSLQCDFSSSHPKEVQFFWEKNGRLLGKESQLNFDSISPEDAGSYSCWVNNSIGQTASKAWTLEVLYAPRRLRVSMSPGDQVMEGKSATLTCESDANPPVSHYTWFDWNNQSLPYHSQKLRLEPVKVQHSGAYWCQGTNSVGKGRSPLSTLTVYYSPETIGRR


Each binder was assayed against T1, CD22-His tag (CD22 extracellular …) (assay: ELISA, CD22-His tag coated at 100 ng/well, primary antibody 0.4 ug/ml).
Description: 1C2, 9E9, 2A9, 2G1 and 6B3 antibodies were treated in each well, and then reacted at room temperature for 2 hours, and then washed 3 times with 1 X PBST. Secondary antibody ([…], 1:10,000) was treated and reacted at room temperature for 30 minutes, washed 3 times with 1 X PBST, and then treated with TMB for color development and reacted at room temperature for 5 minutes. Finally, the reaction was terminated by treatment with a stop solution of 1N H₂SO₄, and then the absorbance was measured at 450 nm.

OD450 measurements	Binder
2.43 absorbance at 450 nm	1C2 antibody (antibody, V domains shown, Monoclonal antibody from a hybridoma (fusion with mouse myeloma cells), detected in FACS with goat anti-mouse IgG) VH: QVQLQQPGAELVRPGASVKLSCKASGYTFTSYWMNWVKQRPGQGLEWIGMIDPSDSETHYNQMFKDKATLTVDKSSSTAYMQLSSLTSEDSAVYYCARWGNYDYDVWAMDYWGQGTSVTVSS VL: DVLMTQTPLSLPVSLGDQASISCRSSQNIVHLNGNTFLEWFLQKPGQSPKLLIYKVSNRFSGVPDRFSGSGSGTDFTLKISRVEAEDLGVYYCFQGSHVPYTFGGGTKLEIK
1.79 absorbance at 450 nm	6B3 antibody (antibody, V domains shown, Monoclonal antibody from a hybridoma, detected in FACS with goat anti-mouse IgG) VH: EVQLQQSGPELVKPGASVKISCKASGYTFTDYNMHWVKQSHGKSLEWIGYIYPYNGGTGYKQKFKSKATLTVDNSSSTAYMELRSLTSEDSAVYYCARLYYYGRTSYWGQGTTLTVSS VL: DIVMTQSQKFMSTSVGDRVSVTCKASQNVGTYVAWYQQKPGQSPKALIYSASYRYSGVPDRFTGSGSGTDFTLTISIVQSEDLAEYFCHQYDSYPYTFGGGTKLEIK
2.54 absorbance at 450 nm	2G1 antibody (antibody, V domains shown, Monoclonal antibody from a hybridoma, detected in FACS with goat anti-mouse IgG) VH: EVQLQESGPGLVAPSQSLSITCTVSGFSLTSYDISWIRQPPGKGLEWLGVIWTGGGTNYNSAFMSRLSISKDNSKSQVFLKMNSLQTDDTAIYYCVPHYYGYAMDYWGQGTSVTVSS VL: DIVLTQSPSSLSASLGGKVTITCKASQDINKYIAWYQHKPGKGPRLLIHYTSTLQPGIPSRFSGSGSGRDYSFSISNLEPEDIATYYCLQYDNLLTFGAGTKLELK

Second part, the binder before the results:

Binder	OD450 measurements
9E9 antibody (antibody, V domains shown, Monoclonal antibody from a hybridoma, detected in FACS with goat anti-mouse IgG) VH: EVQLEESGAELVRPGSSVKISCKASGYAFSIYWMNWVKQRPGQGLEWIGQIYPGDGDTNYNGKFKGKATLTADKSSSTAYMQLSSLTSEDSAVYFCARRGITPWFAYWGQGTLVTVSA VL: not shown	1.76 absorbance at 450 nm
2A9 antibody (antibody, V domains shown, Monoclonal antibody from a hybridoma, detected in FACS with goat anti-mouse IgG) VH: EVQLEESGAELVKPGASVKMSCKAFGYTFTTYPIEWMKQNHGKSLEWIGNFHPYNDDTKYNEKFKGKAKLTVEKSSSTVYLELSRLTSDDSAVYYCARGDYYVSSWYFDVWGAGTTVTVSS VL: DIVMTQSQKFMSTSVGDRVSVTCKASQNVGTNVAWYQQKPGQSPKALIYSASYRYSGVPDRFTGSGSGTDFTLTISNVQSEDLAEYFCQQYNSYPLTFGSGTKLEIK	2.93 absorbance at 450 nm
